In patent US20250051821:
Numbering of substitutions follows the chain as printed.

T1: IFF05588
T1 chain: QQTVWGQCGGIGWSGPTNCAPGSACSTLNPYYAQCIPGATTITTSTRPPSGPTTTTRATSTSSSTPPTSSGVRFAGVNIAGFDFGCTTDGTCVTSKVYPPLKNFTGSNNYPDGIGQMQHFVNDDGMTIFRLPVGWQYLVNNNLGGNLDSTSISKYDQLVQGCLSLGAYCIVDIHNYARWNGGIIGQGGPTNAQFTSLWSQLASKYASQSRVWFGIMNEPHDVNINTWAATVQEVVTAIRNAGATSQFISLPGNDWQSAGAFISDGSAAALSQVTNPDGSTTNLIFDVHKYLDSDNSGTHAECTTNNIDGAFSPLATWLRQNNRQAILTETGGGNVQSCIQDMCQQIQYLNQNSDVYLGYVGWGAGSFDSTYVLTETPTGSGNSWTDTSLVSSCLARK

B1: IFF21335 (protein)
chain: TLDKPVIQPNFPGNGLASLGQGLLDNLAPTHSTWDDWGAGWIPQDCKTLVEGAGFSASDVIPFNIHYDDCAQTWTFCRHKDSPLSEVQILDLFGRLPVRMRSFVRHLVFIPGNKSAGSSGDNVLMTGPVDITVYAHEIGHSLDSHAFDPSYGVPFSTGNVWISNYNLDSAVTDPYAQTSQQENFAQETVVSLYDKVVPGGIGTIQSNWQAIFHQYATLEGYIGDVIIPGGTCTHRLTDSPAVPMSGSAKLRRGLGPKPHVALSPEVEEIEAIPMKSSITMTSFDEAGKPNGTYVINL
B2: IFF21380 (protein)
chain: QQLDKPALTNDLDYLLEGNVNNLPSNGGPYWGKWEAGLMPADCKSIAESQDLDPTDFEVWDIFFDDCQDGWSFCRHVDSADSFETLVDTFGRIPVRMRSWIRHILTIPGDNWAFNSNGNIAFSGTTSANLDVALHETGHSLDLLGAYGSEALSSTQEWLDAYDADSNVPDNYARSNQVENVAQNTVVGIYDKVVPGGFPGVQPNYQNIENQYTLLQDKAGDQIIPGGTCDRHLENSETVSASGSSKKARDSVNKKSRAVAHDPAFKGTYTNIVKDFVPFNTQDYHH
B3: IFF21339 (protein)
chain: NLNKPVITPNFPGNGLASLGPGLMNNLAPTHSTWDDWGAGWIPSDCKSMVQGAGFSPNDIIPFNIHYDDCAQTWTFCRHKNSPLSEIQILDIFGRLPVRMRQFVRHLVFVPGNKSAGSNGDNVLMVGDVDVTVFAHEIGHSLDSHAFDSSYGVPFSTGNVWVSNYNLDSAVPDPYAQSSQQENFAQQTVVSLYDKVVPGGIGTIQPNWQAIFHQYATLEGYIGNVIIPGGTCTHRLTDSAPVTMSGSKKSRRALGPKPKVSLSPKVKEIEAIPMESSITMTSFDEHGKPNGTYVIHL
B4: IFF21337 (protein)
chain: B3 chain with P21Q, N25D, N26H, T73S, I87V, S149P, Q187E, V196A, N224D, I295V
B5: IFF21340 (protein)
chain: B3 chain with S44A, T73S, S149P, L192I, I295V
B6: IFF21336 (protein)
chain: B3 chain with P21Q, N25D, N26H, S44Q, S149P, L192I, I295V
B7: IFF21364 (protein)
chain: QLDKPALTDNLDYLLDGNVANLPSNGGPYWGKWEDGLIPADCKSIAESQGLNPTDFEVYDIFFDDCQDGWSFCRHKDSSDSFETLVDTFGRVPVRMRSWVRHILTIPGNNWAFNSNGNIAFSGTTSSNLDVALHETGHSLDLLGAYGDGALSSSQEWEDAYNADSNVPDNYAQSNQVENVAQNTVVGIYDKVVPGGFPGVQPNYANIQNQYTLLQDKAGEQIIPGGTCDRHLENSDTVSMSGSSSKRDVRAAKARAASHDSALKGKYSNIVKDFKPFNSQDFHH
B8: IFF21363 (protein)
chain: QLDKPVIDPEFPSGALDQGLNDHLRAPGSSWDAWEEGWIPEDCKNMIEGTEFSVQDITPFNIHYDDCEDPWVFCRHKDSPLSEDYIVDAFGKMPVRFRSFVRHMLFVPGTESAGSSGDNVQMNGDLPITVFIHETAHSFDGHHGLPDIEGGFSASQAWLDAYNADSAVTDDYGQTSQAENFAQQTVVALFDSNVPDGVASIQPSWQSIENQFRLIQDRAADILRPDGTCTSRLENSAPVEKGGSARLRPSASTKPDVSLKGKIKVIEPVPMGAEMEMAQYDASGKVVGTKVVKVGGRE
B9: IFF21378 (protein)
chain: LDKPALTPDLDYLLDGNTANLPQNGGAHWGKWEDGLMPEDCKSIAEGQDLNPADFEVYDVFYDDCQDAWSFCRHKDSPEDLETLVNTFGRVPVRMRSWVRHVLSIPGNNWAFNSNGNIALSGTTTHNLDVCLHETGHSLDLLGAYVDGALSSTQEWEDAYNKDSAVPDNYARTNQVENVAQNTVVGIYDKVVPGGFPGVQSESQKIENQYKLLQDKAGEQILPGGTCDRHLQNSATVSIKSSSKRENKVVKAREAHDSALKGTYTNIVKEFTPFNTKDFHEEH
B10: IFF21331 (protein)
chain: ALDKPIIDPEFPGGGLASLGQGLLDNLAPTQSTYADWEAGFIPQDCKTIAEGNSLSPLDIIPFNITYTDCSDPWIFCRHKDSPLSEVDMIDLFGRMPVGMRSFIRHIISIPGDKSAGSNGDNVQMNGDVDITVFIHETGHSLDSHGFDASYGVPFSTGQVWTDNYNLDSAVTDSYAQSSQQENFAQETVVALYDKVVPGGVGTIQPNWQAIQHQYETIQGYAGGIIIPGGTCTNRLPNSPAVPMSDSAKYRVNMAHKPDVSLSNYVTEIKSIPMEPIMKLTHYDAAGRPIGKSTIDLST
B11: IFF21367 (protein)
chain: QNLNKPVLFTDGLSPHVDSVFFQHLTPTQSTWDQWGWGWIPQACLSVVQGTQFSPYDIEVYNVHYTDCASAVVMCRHNQAQMSIINMIDAFGRVPIHDRQWTQHILALPASSCSAGTGGAVTTFYGPCYIPSVFVHELTHTLDAYVNDQTGSTGSVHVYSTTSSYLNSVNQDSCVPDGYANTSPQEDYAQTSVLALYEKVNPGGLDPIGNWRCLVNAKNNLDSIIGQELTPGGSCTHRWADSAIVCMGPAAGCASSKRGFSTRRGARVAGPKPEPANKKGDPLVSNLTPDLTSAVNAKIDDFSHLVSNHTASIEATIRINAWNKAAGKKTVPVPTA
B12: IFF21375 (protein)
chain: QTLDKPALTPNLDYLLQGNTDNLQPAASHYGKWEDGWIPADCKSIAEDQQLNPTDFEVYDVFYGDCGDAWSFCRHKSSSDSIDTIIDTFGRVPVRMRSWVRHVLTIPGDNWAFNSNGNIAFSGTTSQNLDVALHETGHSLDLLGAYGETLSSSQTWLDNYNQDPNVPDEYARSNQVENVAQNTVVGIYDKVVPGGFGSVQPNWGNIFHQYSTLQSMAKDTIIPGGTCDRHLANSETVSMASTQSNATRMARIRRVKPSHSFRQTYDNIVEGFTPFSTKDTCHFSWA
B13: IFF21352 (protein)
chain: NLNKPVIQPNFPSLAPGLMSHLSPTHSTWDDWGAGWIPRDCKSMVQGAGFSPNDIIPFNIHYDDCGQTWTFCRHKKSPLSELQILDMFGRLPVRMRSFIRHMVFVPGTRSAGSNGDNILVVGDGDITLFAHEIGHSLDSHAFDPSYGVPFSTGNVWVSNYNLDSAVSDSYAQSSQQENFAQETVISLFDKVVPGGIGTIQPNWRAIFHQYATLQGYIGNVIIPGGTCTHRLTDSPPVPMSGSAKSRRGLGLKPDVSLTPEVKEIEAIPMESSITMTSFNEQGKPSGTYVIHLK
B14: IFF21365 (protein)
chain: DDTLSKPALTDNLDYLLDGNVASLPSNGGPYWGKWEDGLMPADCKSIAEDQGLNPTDFEVWDIFFDDCQDGWSFCRHKDSADSFETLVDTFGRVPVRMRSWVRHVLTIPGDNWAFNSNGNICFSGTTSQNLDVALHETGHSLDLLGAYGDGALSSSQEWLDAYNADSNVPDNYARSNQVENVAQNTVVAVYDKNVPGGFPGVQTDYAKIQNQYTLVEDKAGDQIVPGGTCDRHLENSETVPMSGSSAKRDIRIKGRAVGAGAVTHDWKFKGTYSNIVTDFEPFNSKDFHH
B15: IFF21349 (protein)
chain: VLDKPVIQPNFPGGGLDSLSQGLLDNLAPTQSTWDEWGAGWIPQDCKTLAEGSGFSALDITTFNIYYTDCADAWVFCRHKDAPLSEIDMIDLFGRMPVRMRDFVRHIIAVPGNPSAGSSGDNIQMNGGLPITVFVHETGHSLDSHAFSEPFSLSQAWIDAYNQDSAVPDSYAQTSQQENFAQETVVALYDKVVPGGVGTIQPNWNAIFHAYATLQGYIGDVIIPGGTCVNRLTNSAPVPQSNSAKVRIASEKPDVTLRGNVTVLESIPMGSSIELTHFDAEGKPTGRSTVNLG

Biological target: T1, IFF05588

Row | Protein | Relative late peak area (centered, scaled, averaged over 5, 10 and 15 min) | Relative late peak area (centered, scaled, averaged over doses, 24 h; sample diluted 10-fold) | Relative late peak area (reverse phase chromatography, 24 h) | Relative late peak area (centered, scaled, averaged over doses, 24 h; sample diluted 1-fold) | Relative late peak area (centered, scaled, averaged over doses, 24 h; sample diluted 2-fold)
1 | B1 | 0.67 | 0.3 | 0.66 |  | 
2 | B2 | -0.71 |  | 0.61 | -0.02 | 
3 | B3 | -0.05 |  |  |  | 0.53
4 | B4 | 0.9 | 0.52 |  |  | 
5 | B5 | -0.31 |  | 0.33 |  | 0.37
6 | B6 | -0.34 |  |  |  | 0.36
7 | B7 | -0.57 |  | 0.49 |  | -0.28
8 | B8 | -0.43 |  | 0.3 |  | -0.13
9 | B9 | -0.6 |  | 0.52 | 0.1 | 
10 | B10 | -0.86 |  |  | -0.21 | 
11 | B11 | -0.67 |  |  | 0.19 | 
12 | B12 | 1.08 | 0.42 | 0.63 |  | 
13 | B13 | -0.63 |  |  | 0.42 | 
14 | B14 | 1.04 | 0.38 | 0.61 |  | 
15 | B15 | 0.02 |  |  |  | 0.56
